Laboratory results from US20200148774A1 (Genentech, published 2020).
One block for each binder: values may come before it.

How the values were obtained:
[1] = biological target: T1, recombinant cynomolgus CLL-1 extracellular domain (ECD, amino acids 65-265) fused to an N-terminal Flag (cynomolgus monkey); assay: affinity column of the TDB summary table (rounded Biacore KD of the second the 8th table / the 4th table tables)
T1 construct: Construct stated for the immunogen; also called CynoCLL-1 Flag; cynoCLL-1
T1 chain: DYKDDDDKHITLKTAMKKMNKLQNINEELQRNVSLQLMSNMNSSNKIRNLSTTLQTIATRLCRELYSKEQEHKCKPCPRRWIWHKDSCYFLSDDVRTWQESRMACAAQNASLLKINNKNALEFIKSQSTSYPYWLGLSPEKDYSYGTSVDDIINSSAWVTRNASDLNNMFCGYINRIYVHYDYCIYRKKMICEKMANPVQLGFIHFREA

[2] = biological target: T2, recombinant human CLL-1 extracellular domain (ECD, amino acids 65-265) fused to an N-terminal Flag (human, UniProt Q5QGZ9 65-265); assay: as above
T2 construct: The construct and the K244Q SNP are stated for the immunogen; they are not written as a piece; also called huCLL-1-Flag; huCLL-1
T2 chain: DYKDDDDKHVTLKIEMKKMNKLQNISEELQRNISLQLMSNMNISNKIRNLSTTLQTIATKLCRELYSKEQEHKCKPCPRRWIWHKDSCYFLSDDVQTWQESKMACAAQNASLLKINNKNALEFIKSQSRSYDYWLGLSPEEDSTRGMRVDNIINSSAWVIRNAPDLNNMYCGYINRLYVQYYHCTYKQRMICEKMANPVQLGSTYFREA

[3] = biological target: T1, recombinant cynomolgus CLL-1 …; assay: SPR (Biacore), chimeric IgG captured by anti-human IgG, CLL-1 as analyte
Procedure: (§1) The chimeric anti-CLL-1 human IgG were captured by mouse anti-human IgG coated on the CM5 sensor chip. […] Association rates (kon) and dissociation rates (koff) were calculated using a simple one-to-one Langmuir binding model. The equilibrium dissociation constant (KD) was calculated as the ratio koff/kon.

[4] = biological target: T2, recombinant human CLL-1 extracellular …; assay: as above
Procedure: as §1

[5] = biological target: T3, human CLL-1 on cells (endogenous on HL-60, EOL-1 and other AML cell lines and CD14+ monocytes); recombinant on … (human, UniProt Q5QGZ9 1-265); assay: cell-based or functional assay
T3 sequence: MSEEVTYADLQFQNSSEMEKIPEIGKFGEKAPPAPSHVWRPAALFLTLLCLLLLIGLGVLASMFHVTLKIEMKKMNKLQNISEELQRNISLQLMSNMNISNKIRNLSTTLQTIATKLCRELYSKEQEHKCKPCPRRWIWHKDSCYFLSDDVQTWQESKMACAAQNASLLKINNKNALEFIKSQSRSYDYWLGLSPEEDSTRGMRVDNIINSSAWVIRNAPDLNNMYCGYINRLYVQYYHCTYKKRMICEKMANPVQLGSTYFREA

[6] = biological target: T3, human CLL-1 on cells (endogenous on …); assay: cell-based or functional assay; remark: listed apart in the source
[7] = biological target: T3, human CLL-1 on cells (endogenous on …); assay: cell-based or functional assay; remark: listed apart in the source
[8] = biological target: T1, recombinant cynomolgus CLL-1 …; assay: SPR (Biacore T200), IgG captured by anti-human Fc, CLL-1 as analyte
[9] = biological target: T2, recombinant human CLL-1 extracellular …; assay: as above

B1: ch28H12 (antibody, V domains shown)
VH: QVQLQQSGAELVKPGASVKLSCTASGFNIKDTYMHWVKQRPEQGLEWIGRIDPANGDTDYDPKFQGKATVTADTSSNTAYLQLSSLTSEDTAVYYCTISGPPYYVMDYWGQGTSVTVSS
VL: DIQMTQSPASLAVSLGQRATISCRASQSVSSSSYSYMHWYQQKPGQPPKLLIKYASNLESGVPARFSGRGSGTDFTLNIHPVEEEDTATYYCQHSWEIPYTFGGGTRLEIK
notes: chimeric version of m28H12, human IgG; also called chimeric 28H12
Kd [1]: 0.3 nM
Kd [2]: 18 nM
Kd [3]: 0.3 nM
koff [3]: 0.00023 s⁻¹
kon [3]: 670000 M⁻¹ s⁻¹
Kd [4]: 18 nM
koff [4]: 0.0095 s⁻¹
kon [4]: 500000 M⁻¹ s⁻¹

B3: h6E7 (6E7.L4H1e)×38E4v1 TDB (bispecific antibody, V domains shown)
VH 1: EVQLVQSGAEVKKPGASVKVSCKASGYSFTDYYMHWVRQAPGQGLEWIGRINPYNGAAFYSQNFKDRVTLTVDTSTSTAYLELSSLRSEDTAVYYCAIERGADLEGYAMDYWGQGTLVTVSS
VL 1: DIQMTQSPSSLSASVGDRVTITCRASQSVSTSSYNYMHWYQQKPGKPPKLLIKYASNLESGVPSRFSGSGSGTDFTLTISSLQPEDFATYYCQHSWEIPLTFGQGTKVEIK
VH 2: EVQLVQSGAEVKKPGASVKVSCKASGFTFTSYYIHWVRQAPGQGLEWIGWIYPENDNTKYNEKFKDRVTITADTSTSTAYLELSSLRSEDTAVYYCARDGYSRYYFDYWGQGTLVTVSS
VL 2: DIVMTQSPDSLAVSLGERATINCKSSQSLLNSRTRKNYLAWYQQKPGQSPKLLIYWTSTRKSGVPDRFSGSGSGTDFTLTISSLQAEDVAVYYCKQSFILRTFGQGTKVEIK
average killing EC50, EOL-1 (n = 5) [5]: 4.1 ng/mL
average killing EC50, HL-60 (n = 2) [5]: 104 ng/mL
average killing EC50, ML-2 [5]: 2.5 ng/mL
average killing EC50, Molm-13 (lowest expressor of CLL-1) [5]: 23 ng/mL
average killing EC50, NOMO-1 [5]: 12.2 ng/mL
average killing EC50, PL-21 [5]: 5.9 ng/mL
average killing EC50, THP-1 (n = 3) [5]: 3.6 ng/mL
average killing EC50, U937 [5]: 2.1 ng/mL
average killing EC50, human autologous CD14+ (n = 3) [5]: 2.8 ng/ml
EC50 for killing target cells (EOL-1) [6]: 9.1 ng/mL
EC50 for killing target cells (THP-1) [6]: 5.4 ng/mL
EC50 of killing of EOL-1 (other donors) [6]: 7.4 ng/mL
EC50 of killing of EOL-1 target cells by cynomolgus pan-T cells [6]: ~5 ng/mL
EC50 of killing of HL-60 (other donors) [6]: 95.6 ng/mL
Cell killing EC50 (EOL-1 cells, human CD8+ T cells) [7]: 14 ng/mL

Continued by falling Kd [1], values first:

Kd [1]: 48.7 nM
Kd [2]: 113 nM
Kd [8]: 48.7 nM
koff [8]: 0.00869 s⁻¹
kon [8]: 178000 M⁻¹ s⁻¹
Kd [9]: 113 nM
koff [9]: 0.0344 s⁻¹
kon [9]: 304000 M⁻¹ s⁻¹
B4: 6E7.L4H1eD54 (antibody, V domains shown)
VH: EVQLVQSGAEVKKPGASVKVSCKASGYSFTDYYMHWVRQAPGQGLEWIGRINPYDGAAFYSQNFKDRVTLTVDTSTSTAYLELSSLRSEDTAVYYCAIERGADLEGYAMDYWGQGTLVTVSS
VL: DIQMTQSPSSLSASVGDRVTITCRASQSVSTSSYNYMHWYQQKPGKPPKLLIKYASNLESGVPSRFSGSGSGTDFTLTISSLQPEDFATYYCQHSWEIPLTFGQGTKVEIK
notes: IgG; also called h6E7D; H6E7.L4H1D54

Kd [1]: 6.1 nM
Kd [2]: 4.5 nM
Kd [3]: 6.1 nM
koff [3]: 0.0012 s⁻¹
kon [3]: 190000 M⁻¹ s⁻¹
Kd [4]: 4.5 nM
koff [4]: 0.001 s⁻¹
kon [4]: 220000 M⁻¹ s⁻¹
B2: ch20B1 (antibody, V domains shown)
VH: EVQLQQSGPELVKPGALVKISCKASGYTFTSYDINWLKQRPGQGLEWIGWIYPGDGTTEYNERFKGKATLTADKSSSTAYLQLSSLTSENSAVYFCARSYDYDYAMDYWGQGTSVTVSS
VL: DIVLTQSPAIMSASPGEKVTMTCSASSSISYMYWYQQKPGTSPKRWIYDTSKLASGVPARFSGSGSGTSYSLTISSMEAEDAATYYCHQRSSWTFGGGTKLEIK
notes: chimeric version of m20B1, human IgG; also called chimeric 20B1; 2061 [sic]
